Measured values: US20110076272A1, “THERAPEUTIC METHODS AND COMPOSITIONS” (priority 2009, published 2011)
Read-outs that look alike come from different tables or passages of the source.

Tests used:
[1] = test system: purified recombinant human LOXL2; test: Amplex Red assay of LOXL2 enzymatic activity; format: biochemical
Method: (§1) A mouse anti-human LOXL2 antibody (AB0023) was obtained by immunization with full-length LOXL2 protein and purified by SEC-HPLC (Tosoh TSKGEL G3000SWXL 7.8×300). Analytical size exclusion chromatography was used to assess antibody stability and purity. Purified AB0023 was run on SDS-PAGE Coomassie (Invitrogen BT 4-12% Gels) reducing and non-reducing gels to assess purity. Potency was examined by ELISA to determine Kd, and effect on LOXL2 enzymatic activity was determined using an Amplex Red Assay (Molecular Probes/Invitrogen, Carlsbad, Calif.). Antibody concentration was measured by absorbance at 280 nm using an Extinction Coefficient Abs 0.1% of 1.4. Identity was assayed by isoelectric focusing (Invitrogen pH 3-10 IEF Gels). For safety analysis, endotoxin levels were measured at a sensitivity range of 0.01-1 EU/ml (Charles River EndoSafe PTS).

[2] = test system: MDA-MB-435 established primary tumors; test: MDA-MB-435 established primary tumor xenograft model; format: in vivo, mouse; details: independent study; AB0023 5 mg/kg twice per week, BAPN 100 mg/kg daily
[3] = test system: fibroblasts or tumor cell lines; test: Short-term growth factor signaling (TGFb, PDGF-BB) with or without AB0023; format: cell-based
[4] = test system: human umbilical vein endothelial cells (HUVEC); test: In vitro HUVEC tube formation assay; format: cell-based; details: for IC50: CD31 staining, day 11
Method: Human umbilical vein endothelial cells (HUVECs) were plated on a feeder layer of fibroblasts and cultured in 24-well plates in Lonza EBM-2 medium (a basal medium developed for normal human endothelial cells in a low-serum environment) supplemented with hEGF, Hydrocortisone, GA-1000 (Gentamicin, Amphotericin-B), FBS (Fetal Bovine Serum) 10 ml (2% final), VEGF, hFGF-B, R3-IGF-1, Ascorbic Acid and heparin. […] At this point (day 1), 0.5 ml of fresh endothelial cell growth medium containing no additions (control), anti-LOXL2 antibody AB0023, or suramin was added to the wells. The plate was then cultured at 37° C. and 5% CO2. On days 4, 7 and 9 the medium was removed from all wells and carefully replaced with 0.5 ml of fresh medium containing the additions listed above. On day 11, the plates were fixed and tubules were assayed for CD31 expression as follows. Wells were washed with 1 ml PBS and fixed with 1 ml ice cold 70% ethanol for 30 minutes at room temperature. Cells were then incubated, for 60 minutes at 37° C., with 0.5 ml mouse anti-human CD31 antibody diluted 1:400 in PBS containing 1% BSA. Wells were then washed three times with 1 ml PBS, followed by incubation for 60 minutes at 37° C. with 0.5 ml alkaline phosphatase-conjugated goat anti-mouse IgG secondary antibody diluted 1:500 in PBS containing 1% BSA. Wells were washed a further three times with 1 ml PBS prior to incubation for 10 minutes at 37° C. with 0.5 ml freshly prepared and filtered BCIP/NBT substrate. Wells were then carefully washed three times with 1 ml distilled water and left to air dry overnight.
Digital images of each well were taken using a Nikon Coolpix camera on a Leica inverted microscope at 10× magnification. Four random fields per well were imaged, producing 96 images in total. Images were then converted to BMP files and imported into an image analysis package to measure number of vessel branches, number of vessels and total vessel length. […]

LOXL2 = target: T1, LOXL2 (Homo sapiens, UniProt Q9Y4K0); test: Western blot analysis and ELISA of AB0023 specificity; format: binding
T1 sequence (Q9Y4K0 26-774): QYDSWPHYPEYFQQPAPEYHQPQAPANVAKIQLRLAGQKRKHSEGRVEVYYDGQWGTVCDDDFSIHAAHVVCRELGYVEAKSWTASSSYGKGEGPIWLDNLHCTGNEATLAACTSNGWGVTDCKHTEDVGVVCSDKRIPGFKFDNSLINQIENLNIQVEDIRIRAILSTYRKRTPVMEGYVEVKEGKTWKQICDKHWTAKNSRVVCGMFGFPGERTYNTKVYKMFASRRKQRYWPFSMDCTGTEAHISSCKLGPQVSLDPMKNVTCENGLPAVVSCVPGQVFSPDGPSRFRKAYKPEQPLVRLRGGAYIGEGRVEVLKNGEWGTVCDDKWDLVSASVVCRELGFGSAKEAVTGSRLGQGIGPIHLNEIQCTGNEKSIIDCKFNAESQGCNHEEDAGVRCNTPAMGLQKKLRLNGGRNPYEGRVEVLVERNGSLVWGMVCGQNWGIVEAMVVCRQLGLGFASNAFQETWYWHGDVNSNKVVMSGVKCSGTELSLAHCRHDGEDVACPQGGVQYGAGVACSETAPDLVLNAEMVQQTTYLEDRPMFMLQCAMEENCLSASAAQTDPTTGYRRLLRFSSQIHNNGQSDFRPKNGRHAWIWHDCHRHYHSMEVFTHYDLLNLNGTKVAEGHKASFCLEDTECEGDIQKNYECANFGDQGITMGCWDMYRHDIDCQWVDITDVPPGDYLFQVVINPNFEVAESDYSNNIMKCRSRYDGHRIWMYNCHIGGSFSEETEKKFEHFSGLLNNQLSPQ
Method: as §1

MCF7 cells = test: Induction of EMT-like phenotype by LOXL2-containing conditioned media (rhodamine-phalloidin staining); format: cell-based; details: MDA-MB231 or Hs-578t conditioned media; BAPN up to 2 mM
Method: Cells were seeded at 80% confluency, in an 8-chambered slide, 24 hours prior to the day of staining. After 24 hours, media was aspirated and the chambers were washed with PBS. Cells were then fixed with 4% Parafomaldehyde (PFA) for 20 minutes at room temperature and then permeabilized with 0.5% Saponin (JT Baker, Phillipsburg, N.J.) for 5 minutes at room temperature. Cells were then stained for 15 minutes at room temperature with a 1:100 dilution of rhodamine phalloidin (Invitrogen, Carlsbad, Calif.). Slides were mounted with Vectashield (Vector Laboratories, Burlingame, Calif.).
MCF7 or SW620 cells were seeded at 50,000 cells per well of an 8-chambered culture slide in HGDMEM (high-glucose Dulbecco's modified Eagle's medium containing 4.5 g/l glucose)+10% FBS, 2 mM L-glutamine, 24 hours prior to being exposed to conditioned medium (CM). 500 uls of fresh conditioned medium from MDA MB 231 cells was added to the chambers containing MCF7 cells. The cells were incubated with the CM for 48-96 hours. Conditioned medium from MCF7 or SW620 cells was used as a negative control. After 48-96 hours incubation with CM, the cells were stained with rhodamine-phalloidin as described above.

B1: AB0023: mouse anti-human LOXL2 monoclonal antibody; heavy chain variable region SEQ ID NO:1, light chain variable region SEQ ID NO:2 (antibody, listed as Mus musculus, V domains shown)
VH: MEWSRVFIFLLSVTAGVHSQVQLQQSGAELVRPGTSVKVSCKASGYAFTYYLIEWVKQRPGQGLEWIGVINPGSGGTNYNEKFKGKATLTADKSSSTAYMQLSSLTSDDSAVYFCARNWMNFDYWGQGTTLTVSS
VL: MRCLAEFLGLLVLWIPGAIGDIVMTQAAPSVSVTPGESVSISCRSSKSLLHSNGNTYLYWFLQRPGQSPQFLIYRMSNLASGVPDRFSGSGSGTAFTLRISRVEAEDVGVYYCMQHLEYPYTFGGGTKLEIK
modifications: Heavy chain; Light chain
B1 was tested, and the “mode of inhibition of LOXL2” value [1] was “non-competitive allosteric inhibitors”, the “inhibition of LOXL2 enzymatic activity” value ([1]; in vitro) was “inhibits” and the “reduction in collagen production, Sirius red staining” value [2] was 47%. For the same molecule, the “reduction in fibroblast activation, αSMA positivity” value [2] was greater than 90%, the “reduction in tumor vasculature, CD31 signal” value [2] was 52% and the “reduction in tumor volume after 46 days” value [2] was 38.4%. The “inhibition of SMAD2 phosphorylation (TGFb signaling)” value ([3]; 10-60 minute time frame) was 10-20%, the “effect on AKT phosphorylation” value ([3]; PDGF-BB, 10-60 minute time periods) was “No significant effects” and the “inhibition of vessel branching, vessel length and total number of vessels” value ([4]; 50 ug/ml) was “complete inhibition”. The IC50 ([4]; read-out: IC50 for inhibition of number of vessels (FIG. 4 Panel H)) was 19.9 nM, the IC50 ([4]; read-out: IC50 for inhibition of vessel branching (mean number of branching points, FIG. 4 Panel G)) was 22.2 nM and the “cross-reactivity with other lysyl oxidase-type enzymes” value (LOXL2) was “no cross-reactivity”. The “remodeling of the actin cytoskeleton induced by LOXL2-containing conditioned media” value (MCF7 cells) was “abrogated”.
